Substitutions are numbered along the chain they refer to. Names and notes keep the numbering of the source. Where two headings read alike, the source gives them in different places. Each block holds one binder with its values, some of them ahead of it.
Tests used:
[1] = target: T1, human CD47 (hCD47) expressed on cells (human, UniProt Q08722 19-323); assay: flow cytometry, Raji cells, competition with hSIRPα
T1 construct: Transfected CHO cells or endogenous CD47 of human cells; also called CHO-hCD47; CD47 on Raji cells

[2] = target: T2, hu-sCD47-6His; extracellular domain of human CD47 antigen with 6His-tag (human); assay: SPR Biacore
T2 construct: also called hCD47-his; soluble hCD47
Text: (§1) An anti-human or anti-mouse IgG (Fc) was first immobilized on the surface of Serie S Sensor Chips CM5 using the human or mouse antibody capture and amine coupling kits, following the manufacturer's instructions (GE Healthcare). […] The mouse, chimerized or humanized antibodies to be tested were then captured onto the appropriate anti-mouse or anti-human IgG surface in all flow cells except flow cell 1 used as control, at concentration and contact time adjusted so that ˜300 RU were captured on the surface. Binding kinetics were studied by passing increasing concentrations of hCD47-his in a series of five 10 minute injections through all flow cells at a rate of 30 μL/min. […] Following the final injection, buffer was passed across each flow cell for 60 minutes (mouse) or 30 minutes (human) to monitor the dissociation of bound antigen. Regeneration of the binding surface was carried out at the end of the cycle by flowing 3 M MgCl₂ for 60 s at 20 μL/min followed by 10 mM glycine-HCl, pH 1.7 for 180 s at 10 μl/min (for human) or by flowing 10 mM glycine-HCl, ph 1.7 for 360 s at 10 μl/min (for mouse). A second cycle with the same antibodies but no antigen was run as a control. Kinetics binding constants were estimated by non-linear fitting of the sensogram data to the 1:1 binding model provided by the Biacore T200 evaluation software.

[3] = target: T1, human CD47 (hCD47) expressed on cells; assay: flow cytometry, Raji cells
[4] = target: T3, mouse CD47 (mCD47) expressed on CHO cells (mouse, UniProt Q61735 19-303); assay: flow cytometry, CHO-mCD47 cells
T3 construct: whole, on cells; also called CHO-mCD47
T3 sequence (looked up): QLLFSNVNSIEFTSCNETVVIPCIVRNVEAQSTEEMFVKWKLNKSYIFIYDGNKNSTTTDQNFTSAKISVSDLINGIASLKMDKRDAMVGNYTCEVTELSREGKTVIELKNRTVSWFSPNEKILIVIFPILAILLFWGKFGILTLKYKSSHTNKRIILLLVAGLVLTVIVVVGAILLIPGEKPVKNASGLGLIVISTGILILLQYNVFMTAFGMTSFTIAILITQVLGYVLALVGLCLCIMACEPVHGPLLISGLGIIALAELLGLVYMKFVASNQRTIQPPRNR

[5] = target: T1, human CD47 (hCD47) expressed on cells; assay: flow cytometry, hCD47-CHO cells, competition with His-hSIRPα
Experimental: Human CD47-transfected cells (3×10⁵ cells/well of 96-well plate) were first incubated at +4° C. for 30 minutes with serial dilutions of anti-CD47 antibodies or isotype control antibody (in mIgG2a or mIgG1 format). […] The percentage inhibition was plotted against antibody concentration and the IC50 values were calculated using a nonlinear regression analysis model of the GraphPad Prism software.

[6] = target: T1, human CD47 (hCD47) expressed on cells; assay: cell-based or functional assay
[7] = target: T2, hu-sCD47-6His; extracellular domain of …; assay: SPR Biacore T200, antibody captured, hCD47-his analyte;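 further: antibodies captured on anti-IgG (Fc) CM5 chip, five sequential 10 min antigen injections at rising concentrations, reference flow cell and antigen-free cycle as controls, 1:1 model fit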
Text: as §1

[8] = target: T1, human CD47 (hCD47) expressed on cells; assay: flow cytometry, Raji cells; remark: listed apart in the source
Experimental: Raji cells (ATCC-CLL-86; 2×10⁵ cells/well of 96-well plate) were first incubated at +4° C. for 30 minutes with serial dilutions of anti-CD47 antibodies or control isotype antibody (in mIgG2a or mIgG1 format). The cells were then washed and incubated for 30 minutes at +4° C. with a PE-conjugated F(ab)′2 goat anti-mouse IgG antibody ( 1/100 dilution, Beckman Coulter). After washings, the fluorescence of the cells was analyzed by flow cytometry on an Accuri-C6 flow cytometer (BD Biosciences).
The delta of MFI, representing the difference between the intensity measured with the tested antibody and the intensity in the absence of antibody, was calculated for each antibody concentration and the values were plotted against the antibody concentrations. The EC50 values were then calculated by using a nonlinear regression analysis model of the GraphPad Prism software.

[9] = target: T1, human CD47 (hCD47) expressed on cells; assay: flow cytometry, Raji cells, competition with His-hSIRPα
Experimental: The percent inhibition was plotted against antibody concentration and the IC50 values were calculated by using a nonlinear regression analysis model of the GraphPad Prism software.

[10] = target: T1, human CD47 (hCD47) expressed on cells; assay: flow cytometry, Raji cells; remark: listed apart in the source
[11] = target: T1, human CD47 (hCD47) expressed on cells; assay: flow cytometry, Raji cells, competition with hSIRPα; remark: listed apart in the source
[12] = target: T1, human CD47 (hCD47) expressed on cells; assay: flow cytometry on Raji cells, hIgG4 format: inhibition of hSIRPα binding to hCD47
[13] = target: T2, hu-sCD47-6His; extracellular domain of …; assay: SPR Biacore; remark: listed apart in the source
Text: as §1

[14] = target: T1, human CD47 (hCD47) expressed on cells; assay: flow cytometry on Raji cells, hIgG4 format, delta MFI
[15] = target: T3, mouse CD47 (mCD47) expressed on CHO …; assay: flow cytometry, CHO-mCD47 cells (not shown)
[16] = target: T1, human CD47 (hCD47) expressed on cells; assay: flow cytometry, Raji cells, competition with hSIRPα; remark: listed apart in the source
[17] = target: T1, human CD47 (hCD47) expressed on cells; assay: flow cytometry, Raji cells; remark: listed apart in the source
[18] = target: T1, human CD47 (hCD47) expressed on cells; assay: flow cytometry on Raji cells, hIgG4 format: inhibition of hSIRPα binding to hCD47; remark: listed apart in the source
[19] = target: T1, human CD47 (hCD47) expressed on cells; assay: flow cytometry on Raji cells, hIgG4 format, delta MFI; remark: listed apart in the source
[20] = target: T2, hu-sCD47-6His; extracellular domain of …; assay: SPR Biacore; remark: listed apart in the source
Text: as §1

[21] = target: T2, hu-sCD47-6His; extracellular domain of …; assay: SPR Biacore; head read as x 10^-4
Text: as §1

[22] = target: T1, human CD47 (hCD47) expressed on cells; assay: flow cytometry on Raji cells, hIgG4 format: inhibition of hSIRPα binding to hCD47; remark: listed apart in the source
[23] = target: T1, human CD47 (hCD47) expressed on cells; assay: flow cytometry on Raji cells, hIgG4 format, delta MFI; remark: listed apart in the source
[24] = target: T1, human CD47 (hCD47) expressed on cells; assay: as above; remark: listed apart in the source
[25] = target: T1, human CD47 (hCD47) expressed on cells; assay: flow cytometry on Raji cells, hIgG4 format: inhibition of hSIRPα binding to hCD47; remark: listed apart in the source

B1: h22-VH3-VL3 (candidate 22.11) (antibody, human IgG4 S228P, kappa, V domains shown)
VH: QVQLQESGAEVKKPGASVKVSCKASGYTFTTYWMHWVRQAPGQGLEWMGMIHPNSGTTNYNEKFKSRVTMTRDTSTSTVYMELSSLRSEDTAVYYCTRSHYYDGHFSYWGQGTLVTVSS
VL: EIVLTQSPDSLAVSLGERATINCKSSQSLLNSRTRKNYLAWYQQKAGQSPKLLIYWASTRESGVPDRFSGSGSGTDFTLTIDSLQAEDVAVYYCKQSYNLWTFGGGTKVEIKR
notes: hIgG4-S228P/kappa
IC50 [1]: 0.096 mg/L | Kd [2]: 10.9 nM | koff [2]: 0.000306 s⁻¹ | kon [2]: 28400 M⁻¹ s⁻¹ | EC50 [3]: 0.139 mg/L

B2: h22-VH4-VL3 (candidate 22.15) (antibody, human IgG4 S228P, kappa, V domains shown)
VH: B1 VH with Q5V, E6Q, A24G, M70L, T76I, V79A, S85R, R87T, E89D, L114M
VL: B1 VL
notes: hIgG4-S228P/kappa
IC50 [1]: 0.098 mg/L | Kd [2]: 12.1 nM | koff [2]: 0.000351 s⁻¹ | kon [2]: 29100 M⁻¹ s⁻¹ | EC50 [3]: 0.124 mg/L

B4: h22-VH3-VL4 (candidate 22.12) (antibody, human IgG4 S228P, kappa, V domains shown)
VH: B1 VH
VL: DIVMTQSPDSLPVSLGERATINCKSSQSLLNSRTRKNYLAWYQQKPGQPPKLLIYWASTRESGVPDRFTGSGSGTDFTLTISALQAEDVAVYYCKQSYNLWTFGQGTRLEIKR
notes: hIgG4-S228P/kappa
IC50 [1]: 0.116 mg/L | Kd [2]: 10 nM | koff [2]: 0.000252 s⁻¹ | kon [2]: 25200 M⁻¹ s⁻¹ | EC50 [3]: 0.108 mg/L

B6: Candidate 20, chimeric hIgG format (hIgG1 or hIgG4) (antibody, V domains shown)
VH: QVQLKQSGAELVRPGASVKLSCKASGYSFTDYYINWVKQRPGQGLEWIARIYPGIGNTYYNKKFKGKATLTAEKSSSTAYMQLNSLTSEDSAVYFCARGHYGRGMDYWGQGTSVTVSS
VL: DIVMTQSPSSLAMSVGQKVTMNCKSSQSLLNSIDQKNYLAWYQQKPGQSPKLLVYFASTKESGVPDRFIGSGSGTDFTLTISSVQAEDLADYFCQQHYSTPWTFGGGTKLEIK
notes: also called Candidate 20 (hIgG format)
IC50 [9]: 0.11 mg/L

B7: Candidate 33, chimeric hIgG format (hIgG1 or hIgG4) (antibody, V domains shown)
VH: LVQLQQSGPELVKPGTSVKISCRSSGYTFTDYYINWVQQRPGQGLEWVGWIFPGSGLTYYNKKFKGKATLSVDKSSNTAYMLLSSLTSEDSAVYFCARPYYGSRWDYTMDYWGQGTSVTVSS
VL: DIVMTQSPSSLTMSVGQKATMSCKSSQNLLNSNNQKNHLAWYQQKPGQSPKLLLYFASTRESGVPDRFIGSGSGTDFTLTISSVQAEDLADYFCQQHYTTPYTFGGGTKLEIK
notes: also called Candidate 33 (hIgG format)
IC50 [9]: 0.11 mg/L

B8: h20-H3-L3Y (candidate 20.28), hIgG4-S228P (antibody, V domains shown)
VH: QVQLVQSGAEVKKPGASVKVSCKASGYSFTDYYINWVRQAPGQGLEWMGRIYPGIGNTYYNKKFKGRVTVTRDTSISTAHMELSSLRSDDTAVYYCARGHYGRGMDYWGQGTAVTVSS
VL: EIVLTQSPDSLAVSLGERATINCKSSQSLLNSIDQKNYLAWYQQKAGQSPKLLIYYASTKESGVPDRFSGSGSGTDFTLTIDSLQAEDVAVYYCQQHYSTPWTFGGGTKVEIKR
notes: also called H20-VH3-VL3,Y
EC50 [10]: 0.117 mg/L | IC50 [11]: 0.17 mg/L | IC50 (read off the curve) [12]: ~0.3 mg/L | Kd [13]: 2.32 nM | koff [13]: 0.000573 s⁻¹ | kon [13]: 264000 M⁻¹ s⁻¹ | EC50 (read off the curve) [14]: ~0.1 mg/L

B11: h20-H4-L4Y (candidate 20.29), hIgG4-S228P (antibody, V domains shown)
VH: B8 VH with A16S, V70I, R72A, T74K, I76T, H80Y, D89E, A113T
VL: B8 VL with E1D, L4M, A46P, S49P, D82S, Y93F, T108A
notes: also called H20-VH4-VL4,Y
IC50 (read off the curve) [22]: ~0.4 mg/L | EC50 [10]: 0.147 mg/L | IC50 [11]: 0.181 mg/L | Kd [13]: 2.61 nM | koff [13]: 0.000761 s⁻¹ | kon [13]: 306000 M⁻¹ s⁻¹ | EC50 (read off the curve) [23]: ~0.1 mg/L

B14: Candidate 22, chimeric hIgG format (hIgG1 or hIgG4) (antibody, V domains shown)
VH: QVQLQQPGAELVKPGASVKLSCKASGYTFTTYWMHWVKQRPGQGLEWIGMIHPNSGTTNYNEKFKSKATLTVDKSSSSTYMQLSSLTSEDSAVYYCTRSHYYDGHFSYWGQGTLVTVSA
VL: DIVMSQSPSSLAVSAGEKVTMSCKSSQSLLNSRTRKNYLAWYQQKPGQSPKLLIYWASTRESGVPDRFTGSGSGTDFTLTISSVQAEDLAVYYCKQSYNLWTFGGGTRLEIK
notes: also called Candidate 22 (hIgG format)
IC50 [9]: 0.233 mg/L

The next lines start with results.

IC50 [1]: 0.116 mg/L | Kd [2]: 9.37 nM | koff [2]: 0.000263 s⁻¹ | kon [2]: 28200 M⁻¹ s⁻¹ | EC50 [3]: 0.184 mg/L
B3: h22-VH4-VL4 (candidate 22.16) (antibody, human IgG4 S228P, kappa, V domains shown)
VH: B1 VH with Q5V, E6Q, A24G, M70L, T76I, V79A, S85R, R87T, E89D, L114M
VL: B4 VL
notes: hIgG4-S228P/kappa

IC50 [5]: 0.657 mg/L | Phagocytic index, Raji cells and human macrophages, antibody at 0.125 µg/mL [6]: 124 Raji cells ingested per 100 macrophages | Kd [7]: 1.94 nM | koff [7]: 0.00037 s⁻¹ | kon [7]: 190000 M⁻¹ s⁻¹ | EC50 [8]: 0.058 mg/L
B5: Candidate 7 (VT008-AL5-10G7-10K7), mouse IgG (antibody, V domains shown)
VH: QVQLQQPGAELVMPGSSVKLSCKTSGYTFTKYWMHWVKRRPGQGLEWIGEINPSDTYTNYNQKFKGKSTLTVDKSSSTAYMQLSSLTSEDSAVYFCARVATMVARGFAYWGQGTLVTVSA
VL: DIVMTQSHKFMSTSVGDRVSITCKASQDVSGAVVWYQEKPGQSPNLLIYLATYRYTGVPDRFTGSGSGTDFTLTIRSVQAEDMAVYYCQQYYSIPWTFGGGTKLEIK
binding result [4]: no binding (tested: 7.3 µg/mL highest concentration)

binding result [15]: no binding | IC50 [16]: 0.051 mg/L | EC50 [17]: 0.191 mg/L | IC50 (read off the curve) [18]: ~0.2 mg/L | EC50 (read off the curve) [19]: ~0.1 mg/L | Kd [20]: 5.85 nM | kon [20]: 118000 M⁻¹ s⁻¹ | koff [21]: 0.000634 s⁻¹
B9: h20-VH2-VL5 (candidate 20.10) (antibody, human IgG4 S228P, kappa, V domains shown)
VH: B8 VH with V70I, I76A, H80Y, D89E, A113L
VL: B8 VL with E1D, L4M, A46P, S49P, Y56F, D82S, S83G, Y93F, K113R
notes: hIgG4-S228P/kappa; also called h20-H2-L5

binding result [15]: no binding | IC50 [16]: 0.173 mg/L | IC50 (read off the curve) [12]: ~0.2 mg/L | EC50 [17]: 0.147 mg/L | Kd [20]: 3.05 nM | kon [20]: 214000 M⁻¹ s⁻¹ | koff [21]: 0.000594 s⁻¹ | EC50 (read off the curve) [14]: ~0.08 mg/L
B10: h20-VH3-VL3 (candidate 20.13) (antibody, human IgG4 S228P, kappa, V domains shown)
VH: B8 VH
VL: B8 VL with Y56F
notes: hIgG4-S228P/kappa; also called h20-H3-L3

binding result [15]: no binding | IC50 [16]: 0.095 mg/L | EC50 [17]: 0.136 mg/L | Kd [20]: 3.5 nM | kon [20]: 192000 M⁻¹ s⁻¹ | koff [21]: 0.000624 s⁻¹ | EC50 (read off the curve) [24]: ~0.1 mg/L | IC50 (read off the curve) [25]: ~0.3 mg/L
B12: h20-VH4-VL5 (candidate 20.20) (antibody, human IgG4 S228P, kappa, V domains shown)
VH: B8 VH with A16S, V70I, R72A, T74K, I76T, H80Y, D89E, A113T
VL: B8 VL with E1D, L4M, A46P, S49P, Y56F, D82S, S83G, Y93F, K113R
notes: hIgG4-S228P/kappa; also called h20-H4-L5

binding result [15]: no binding | IC50 (read off the curve) [22]: ~0.3 mg/L | IC50 [16]: 0.192 mg/L | EC50 [17]: 0.139 mg/L | Kd [20]: 4.15 nM | kon [20]: 179000 M⁻¹ s⁻¹ | EC50 (read off the curve) [23]: ~0.1 mg/L | koff [21]: 0.000685 s⁻¹
B13: h20-VH4-VL4 (candidate 20.19) (antibody, human IgG4 S228P, kappa, V domains shown)
VH: B8 VH with A16S, V70I, R72A, T74K, I76T, H80Y, D89E, A113T
VL: B8 VL with E1D, L4M, A46P, S49P, Y56F, D82S, Y93F, T108A
notes: hIgG4-S228P/kappa; also called h20-H4-L4
